For this test, the system named is synuclein phosphorylation. Nature of the test: overexpression of PLK family members with WT-synuclein in HEK-293 cells, phospho-synuclein ELISA. Format: cell-based, human. The conditions noted are these: for Proportion of total synuclein that is phoshorylated at ser-129: 48 hours post-transfection, with WT-synuclein; for Fold Change in Percent Synuclein Phosphorylation: relative to endogenous kinase (2.0%). The procedure: HEK-293 naïve cells were transfected with an expression vector encoding PLK1, PLK2, PLK3, or PLK4 under the control of a CMV promoter, or empty vector, together with an expression vector encoding WT-synuclein. All vectors had the sequence coding for the protein of interest. Transfection was accomplished using Lipofectamine 2000 (Invitrogen, Carlsbad, Calif.) with 0.08 μg vector. Cells were washed and harvested 48 hours post-transfection. A Micro BCA (Pierce) total protein assay and total synuclein and phospho-synuclein ELISAs were performed on each plate of treated cells.

B1: Over-Expressed PLK2 (protein, UniProt Q9NYY3 1-685, looked up)
Serine/threonine-protein …: MELLRTITYQPAASTKMCEQALGKGCGADSKKKRPPQPPEESQPPQSQAQVPPAAPHHHHHHSHSGPEISRIIVDPTTGKRYCRGKVLGKGGFAKCYEMTDLTNNKVYAAKIIPHSRVAKPHQREKIDKEIELHRILHHKHVVQFYHYFEDKENIYILLEYCSRRSMAHILKARKVLTEPEVRYYLRQIVSGLKYLHEQEILHRDLKLGNFFINEAMELKVGDFGLAARLEPLEHRRRTICGTPNYLSPEVLNKQGHGCESDIWALGCVMYTMLLGRPPFETTNLKETYRCIREARYTMPSSLLAPAKHLIASMLSKNPEDRPSLDDIIRHDFFLQGFTPDRLSSSCCHTVPDFHLSSPAKNFFKKAAAALFGGKKDKARYIDTHNRVSKEDEDIYKLRHDLKKTSITQQPSKHRTDEELQPPTTTVARSGTPAVENKQQIGDAIRMIVRGTLGSCSSSSECLEDSTMGSVADTVARVLRGCLENMPEADCIPKEQLSTSFQWVTKWVDYSNKYGFGYQLSDHTVGVLFNNGAHMSLLPDKKTVHYYAELGQCSVFPATDAPEQFISQVTVLKYFSHYMEENLMDGGDLPSVTDIRRPRLYLLQWLKSDKALMMLFNDGTFQVNFYHDHTKIIICSQNEEYLLTYINEDRISTTFRLTTLLMSGCSSELKNRMEYALNMLLQRCN
Regarding B1, the “Proportion of total synuclein that is phoshorylated at ser-129” value (from here on “Proportion”) is 42.3% and the “Fold Change in Percent Synuclein Phosphorylation” value turned out to be 21.2.

B2: Over-Expressed PLK3 (protein, UniProt Q9H4B4 1-646, looked up)
Serine/threonine-protein …: MEPAAGFLSPRPFQRAAAAPAPPAGPGPPPSALRGPELEMLAGLPTSDPGRLITDPRSGRTYLKGRLLGKGGFARCYEATDTETGSAYAVKVIPQSRVAKPHQREKILNEIELHRDLQHRHIVRFSHHFEDADNIYIFLELCSRKSLAHIWKARHTLLEPEVRYYLRQILSGLKYLHQRGILHRDLKLGNFFITENMELKVGDFGLAARLEPPEQRKKTICGTPNYVAPEVLLRQGHGPEADVWSLGCVMYTLLCGSPPFETADLKETYRCIKQVHYTLPASLSLPARQLLAAILRASPRDRPSIDQILRHDFFTKGYTPDRLPISSCVTVPDLTPPNPARSLFAKVTKSLFGRKKKSKNHAQERDEVSGLVSGLMRTSVGHQDARPEAPAASGPAPVSLVETAPEDSSPRGTLASSGDGFEEGLTVATVVESALCALRNCIAFMPPAEQNPAPLAQPEPLVWVSKWVDYSNKFGFGYQLSSRRVAVLFNDGTHMALSANRKTVHYNPTSTKHFSFSVGAVPRALQPQLGILRYFASYMEQHLMKGGDLPSVEEVEVPAPPLLLQWVKTDQALLMLFSDGTVQVNFYGDHTKLILSGWEPLLVTFVARNRSACTYLASHLRQLGCSPDLRQRLRYALRLLRDRSPA
In the case of B2, the “Proportion” value was 79.2% and the “Fold Change in Percent Synuclein Phosphorylation” value is 39.6.

B3: Over-Expressed PLK4 (protein, UniProt O00444 1-970, looked up)
Serine/threonine-protein …: MATCIGEKIEDFKVGNLLGKGSFAGVYRAESIHTGLEVAIKMIDKKAMYKAGMVQRVQNEVKIHCQLKHPSILELYNYFEDSNYVYLVLEMCHNGEMNRYLKNRVKPFSENEARHFMHQIITGMLYLHSHGILHRDLTLSNLLLTRNMNIKIADFGLATQLKMPHEKHYTLCGTPNYISPEIATRSAHGLESDVWSLGCMFYTLLIGRPPFDTDTVKNTLNKVVLADYEMPSFLSIEAKDLIHQLLRRNPADRLSLSSVLDHPFMSRNSSTKSKDLGTVEDSIDSGHATISTAITASSSTSISGSLFDKRRLLIGQPLPNKMTVFPKNKSSTDFSSSGDGNSFYTQWGNQETSNSGRGRVIQDAEERPHSRYLRRAYSSDRSGTSNSQSQAKTYTMERCHSAEMLSVSKRSGGGENEERYSPTDNNANIFNFFKEKTSSSSGSFERPDNNQALSNHLCPGKTPFPFADPTPQTETVQQWFGNLQINAHLRKTTEYDSISPNRDFQGHPDLQKDTSKNAWTDTKVKKNSDASDNAHSVKQQNTMKYMTALHSKPEIIQQECVFGSDPLSEQSKTRGMEPPWGYQNRTLRSITSPLVAHRLKPIRQKTKKAVVSILDSEEVCVELVKEYASQEYVKEVLQISSDGNTITIYYPNGGRGFPLADRPPSPTDNISRYSFDNLPEKYWRKYQYASRFVQLVRSKSPKITYFTRYAKCILMENSPGADFEVWFYDGVKIHKTEDFIQVIEKTGKSYTLKSESEVNSLKEEIKMYMDHANEGHRICLALESIISEEERKTRSAPFFPIIIGRKPGSTSSPKALSPPPSVDSNYPTRERASFNRMVMHSAASPTQAPILNPSMVTNEGLGLTTTASGTDISSNSLKDCLPKSAQLLKSVFVKNVGWATQLTSGAVWVQFNDGSQLVVQAGVSSISYTSPNGQTTRYGENEKLPDYIKQKLQCLSSILLMFSNPTPNFH
Consider B3, for which the “Proportion” value is recorded as 1.9% and the “Fold Change in Percent Synuclein Phosphorylation” value is 1.0.
